Results published in article PMC2748308.

Columns and labels:
Experiment in all cases: purified protein
Conditions in all cases: 50 mM Hepes pH 8.0
purified protein [1] = substrate: CC(=O)N[C@@H](CC(C)C)C(=O)O
purified protein [2] = substrate: CC(C)C[C@H](NC(=O)[C@H](C)N)C(=O)O
purified protein [3] = substrate: CC(C)C[C@H](NC=O)C(=O)O
purified protein [4] = substrate: C[C@H](N)C(=O)N[C@@H](Cc1ccccc1)C(=O)O
purified protein [5] = substrate: CC(=O)N[C@@H](Cc1ccc(O)cc1)C(=O)O
purified protein [6] = substrate: CC(=O)N[C@@H](Cc1ccccc1)C(=O)O
purified protein [7] = substrate: CC(C)C[C@H](NC(=O)[C@@H](N)CC(=O)O)C(=O)O
purified protein [8] = substrate: CC(C)[C@H](NC=O)C(=O)O
purified protein [9] = substrate: CC[C@H](C)[C@H](NC(C)=O)C(=O)O
purified protein [10] = substrate: CC[C@H](C)[C@H](NC=O)C(=O)O
purified protein [11] = substrate: CSCC[C@H](NC=O)C(=O)O
purified protein [12] = substrate: O=CN[C@@H](Cc1ccc(O)cc1)C(=O)O
purified protein [13] = substrate: O=CN[C@@H](Cc1ccccc1)C(=O)O

B1: Sgx9355e (Alteromonas macleodii) (protein)
chain: MSLDVDSKTLIHAGKLIDGKSDQVQSRISIVIDGNIISDIKKGFISSNDFEDYIDLRDHTVLPGLMDMHVHFGQEYQSKAQAPIKVEREMQAILATQHAYVTFKSGFTTVRQVGDSGLVAISLRDAINSGKLAGPRIFAAGKTIATTGGHADPTNGKAVDDYDYPVPEQGVVNGPYEVYAAVRQRYKDGADGIKITVTGGVLSVAKSGQNPQFTQEEVDAVVSAAKDYGMWVAVHAHGAEGMKRAIKAGVDSIEHGTFMDLEAMDLMIENGTYYVPTISAGEFVAEKSKIDNFFPEIVRPKAASVGPQISDTFRKAYEKGVKIAFGTDAGVQKHGTNWKEFVYMVENGMPAMKAIQSATMETAKLLRIEDKLGSIESGKLADLIAVKGNPIEDISVLENVDVVIKDGLLYE
**Q.** With B1 as the protein, how does the Km (purified protein [1]) read?
**A.** 110 ± 10 µM

**Q.** And the kcat (purified protein [1])?
**A.** 0.032 ± 0.01 s⁻¹

**Q.** And the Km (purified protein [2])?
**A.** 250 ± 30 µM

**Q.** What about the kcat (purified protein [2]) of the same protein?
**A.** 0.34 ± 0.01 s⁻¹

**Q.** What about the kcat/Km (purified protein [2]) of the same protein?
**A.** 1300 ± 200 M⁻¹ s⁻¹

**Q.** And the Km (purified protein [3])?
**A.** 260 ± 40 µM

**Q.** And the kcat (purified protein [3])?
**A.** 0.072 ± 0.003 s⁻¹

**Q.** And the kcat/Km (purified protein [3])?
**A.** 280 ± 40 M⁻¹ s⁻¹

**Q.** And the Km (purified protein [4])?
**A.** 70 ± 10 µM

**Q.** What about the kcat (purified protein [4]) of the same protein?
**A.** 0.41 ± 0.01 s⁻¹

**Q.** And the kcat/Km (purified protein [4])?
**A.** 5800 ± 600 M⁻¹ s⁻¹

B2: Cc0300 (Caulobacter vibrioides CB15) (protein)
chain: QATFVQAGRLLADPATGKVEIAKTLVLENGKVTRILDGYVAEPGGKVVDLKDSFVLPGLIDSHVHLTGQQNPNGRLQAVTQSPSDSAMVGAGFARKTLMAGFTTVANLGANSQAIFALREGVKRGDVAGPRILASGSSISVHGGHGDINGYSEDVMHALRPESVCSGADDCRRAVREQIWLGADLIKITATGGVLSNTAAGLAKQFSDAELAAIVESAHSMGRKVTAHAHGGDGINAFLKAGGDSIEHGTYLDNEGIALMKKSGAYLVPTLMAGDFVYRIASGPNNYFTPAQTAKALEAGPKMLDMVRRAHADGVKVAFGTDSGVSAHGDNAGEFALLVKAGMTPLEAIQTATVNAADHFSLSNEIGSLTPGKAADLIAVKGDPLKDVTELQRVTSVIKGGVVYK
**Q.** B2 was tested. Which Km (purified protein [1]) did it give?
**A.** 150 ± 30 µM

**Q.** What about the kcat (purified protein [1]) of the same protein?
**A.** 2.5 ± 0.1 s⁻¹

**Q.** And the kcat/Km (purified protein [1])?
**A.** 16000 ± 3000 M⁻¹ s⁻¹

**Q.** What about the Km (purified protein [5]) of the same protein?
**A.** 170 ± 20 µM

**Q.** What about the kcat (purified protein [5]) of the same protein?
**A.** 4.6 ± 0.2 s⁻¹

**Q.** What about the kcat/Km (purified protein [5]) of the same protein?
**A.** 27000 ± 3000 M⁻¹ s⁻¹

**Q.** What about the Km (purified protein [6]) of the same protein?
**A.** 310 ± 30 µM

**Q.** And the kcat (purified protein [6])?
**A.** 5.3 ± 0.2 s⁻¹

**Q.** And the kcat/Km (purified protein [6])?
**A.** 17000 ± 2000 M⁻¹ s⁻¹

**Q.** What about the Km (purified protein [7]) of the same protein?
**A.** 220 ± 40 µM

**Q.** And the kcat (purified protein [7])?
**A.** 29 ± 1 s⁻¹

**Q.** And the kcat/Km (purified protein [7])?
**A.** 130000 ± 20000 M⁻¹ s⁻¹

**Q.** What about the Km (purified protein [2]) of the same protein?
**A.** 350 ± 40 µM

**Q.** What about the kcat (purified protein [2]) of the same protein?
**A.** 37 ± 2 s⁻¹

**Q.** And the kcat/Km (purified protein [2])?
**A.** 110000 ± 10000 M⁻¹ s⁻¹

**Q.** What about the Km (purified protein [3]) of the same protein?
**A.** 130 ± 10 µM

**Q.** And the kcat (purified protein [3])?
**A.** 39 ± 2 s⁻¹

**Q.** And the kcat/Km (purified protein [3])?
**A.** 300000 ± 30000 M⁻¹ s⁻¹

**Q.** And the Km (purified protein [8])?
**A.** 80 ± 10 µM

**Q.** What about the kcat (purified protein [8]) of the same protein?
**A.** 18 ± 1 s⁻¹

**Q.** What about the kcat/Km (purified protein [8]) of the same protein?
**A.** 220000 ± 30000 M⁻¹ s⁻¹

**Q.** And the Km (purified protein [9])?
**A.** 140 ± 20 µM

**Q.** And the kcat (purified protein [9])?
**A.** 2.6 ± 0.1 s⁻¹

**Q.** And the kcat/Km (purified protein [9])?
**A.** 19000 ± 2000 M⁻¹ s⁻¹

**Q.** What about the Km (purified protein [10]) of the same protein?
**A.** 70 ± 10 µM

**Q.** And the kcat (purified protein [10])?
**A.** 20 ± 1 s⁻¹

**Q.** And the kcat/Km (purified protein [10])?
**A.** 290000 ± 40000 M⁻¹ s⁻¹

**Q.** What about the Km (purified protein [11]) of the same protein?
**A.** 410 ± 30 µM

**Q.** What about the kcat (purified protein [11]) of the same protein?
**A.** 12 ± 1 s⁻¹

**Q.** What about the kcat/Km (purified protein [11]) of the same protein?
**A.** 29000 ± 2000 M⁻¹ s⁻¹

**Q.** What about the Km (purified protein [4]) of the same protein?
**A.** 660 ± 50 µM

**Q.** What about the kcat (purified protein [4]) of the same protein?
**A.** 19 ± 1 s⁻¹

**Q.** What about the kcat/Km (purified protein [4]) of the same protein?
**A.** 29000 ± 3000 M⁻¹ s⁻¹

**Q.** And the Km (purified protein [12])?
**A.** 90 ± 10 µM

**Q.** What about the kcat (purified protein [12]) of the same protein?
**A.** 33 ± 1 s⁻¹

**Q.** And the kcat/Km (purified protein [12])?
**A.** 390000 ± 40000 M⁻¹ s⁻¹

**Q.** What about the Km (purified protein [13]) of the same protein?
**A.** 260 ± 30 µM

**Q.** And the kcat (purified protein [13])?
**A.** 52 ± 2 s⁻¹

**Q.** And the kcat/Km (purified protein [13])?
**A.** 200000 ± 20000 M⁻¹ s⁻¹
